# B1: KCNK9 (parent)
# chain: CFITLTTIGFGDYVALQTKGALQK
# Variants of: B1
# Assay: protein stability index of a GFP-peptide fusion (GPS, HEK-293T) (PSI 1-6); higher = more stable
# Settings: c terminus: a fixed tail appended
# 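Further: lentivirally expressed fusions sorted by FACS into six bins by GFP to DsRed ratio, PSI derived from sequencing read proportions per bin multiplied by bin number.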
row,Variant,protein stability index
1,CFITLTTIGNGDYVALQTKGALQK [F10N],1.58
2,CFITLTTIGTGDYVALQTKGALQK [F10T],2.59
3,CFITLTTIGYGDYVALQTKGALQK [F10Y],2.12
4,CFITLTTIGMGDYVALQTKGALQK [F10M],2.62
5,CFITLTTIGEGDYVALQTKGALQK [F10E],2.46
6,CFITLTTIGVGDYVALQTKGALQK [F10V],2.06
7,CFITLTTIGCGDYVALQTKGALQK [F10C],2.79
8,CFITLTTIGWGDYVALQTKGALQK [F10W],2.33
9,CFITLTTIGKGDYVALQTKGALQK [F10K],1.85
10,CFITLTTIGGGDYVALQTKGALQK [F10G],2.16
11,CFITLTTIGLGDYVALQTKGALQK [F10L],2.73
12,CFITLTTIGAGDYVALQTKGALQK [F10A],2.05
13,CFITLTTIGRGDYVALQTKGALQK [F10R],1.7
14,CFITLTTIGFGDYVALQTKCALQK [G20C],3.1
15,CFITLTTIGFGDYVALQTKAALQK [G20A],3.49
16,CFITLTTIGFGDYVALQTKDALQK [G20D],3.25
17,CFITLTTIGFGDYVALQTPGALQK [K19P],4.04
18,CFITLTTIGFGDYVALQTYGALQK [K19Y],3.38
19,CFITLTTIGFGDYVALQTTGALQK [K19T],4.24
20,CFITLTTIGFGDYVALQTLGALQK [K19L],2.36
21,CFITLTTIGFGDYVALQTDGALQK [K19D],3.22
22,CFITLTTIGFGDYVALQTQGALQK [K19Q],2.16
23,CFITLTTIGFGDYVALQTFGALQK [K19F],1.95
24,CFITLTTIGFGDYVALQTVGALQK [K19V],3.26

row,Variant,protein stability index
1,CFITLTTIGFGDYVALQTRGALQK [K19R],3.19
2,CFITLTTIGFGDYVALQTWGALQK [K19W],2.13
3,CFITLTTIGFGDYVALQTSGALQK [K19S],2.11
4,CFITLTTIGFGDYVALQTAGALQK [K19A],3.43
5,CFITLTTIGFGDYVALQTGGALQK [K19G],1.24
6,CFITLTTIGFGDYVALQTIGALQK [K19I],2.23
7,CFITLTTIGFGDYVALQTHGALQK [K19H],1.98
8,CFITLTTIGFGDYVALQTEGALQK [K19E],2.46
9,CFITLTTIGFGDYVALQTNGALQK [K19N],4.09
10,CFITLTTIGFGDYVACQTKGALQK [L16C],2.03
11,CFITLTTIGFGDYVARQTKGALQK [L16R],2.74
12,CFITLTTIGFGDYVAFQTKGALQK [L16F],2.53
13,CFITLTTIGFGDYVAAQTKGALQK [L16A],3.26
14,CFITLTTIGFGDYVAIQTKGALQK [L16I],2.65
15,CFITLTTIGFGDYVAMQTKGALQK [L16M],1.56
16,CFITLTTIGFGDYVAGQTKGALQK [L16G],1.89
17,CFITLTTIGFGDYVAHQTKGALQK [L16H],2.43
18,CFITLTTIGFGDYVANQTKGALQK [L16N],2.54
19,CFITLTTIGFGDYVAKQTKGALQK [L16K],3.4
20,CFITLTTIGFGDYVAQQTKGALQK [L16Q],2.65
21,CFITLTTIGFGDYVAWQTKGALQK [L16W],2.27
22,CFITLTTIGFGDYVADQTKGALQK [L16D],2.23
23,CFITLTTIGFGDYVAVQTKGALQK [L16V],3.73
24,CFITLTTIGFGDYVAYQTKGALQK [L16Y],2.44

row,Variant,protein stability index
1,CFITLTTIGFGDYVAEQTKGALQK [L16E],3.25
2,CFITLTTIGFGDYVAPQTKGALQK [L16P],2.64
3,CFITLTTIGFGDYVASQTKGALQK [L16S],1.75
4,CFITLTTIGFGDYVATQTKGALQK [L16T],2.26
5,CFITLTTIGFGDYVALLTKGALQK [Q17L],2.23
6,CFITLTTIGFGDYVALYTKGALQK [Q17Y],3.01
7,CFITLTTIGFGDYVALFTKGALQK [Q17F],3.02
8,CFITLTTIGFGDYVALTTKGALQK [Q17T],2.08
9,CFITLTTIGFGDYVALRTKGALQK [Q17R],2.83
10,CFITLTTIGFGDYVALHTKGALQK [Q17H],3.57
11,CFITLTTIGFGDYVALWTKGALQK [Q17W],2.58
12,CFITLTTIGFGDYVALCTKGALQK [Q17C],3.88
13,CFITLTTIGFGDYVALITKGALQK [Q17I],2.27
14,CFITLTTIGFGDYVALVTKGALQK [Q17V],3.42
15,CFITLTTIGFGDYVALMTKGALQK [Q17M],2.23
16,CFITLTTIGFGDYVALPTKGALQK [Q17P],3.82
17,CFITLTTIGFGDYVALGTKGALQK [Q17G],2.38
18,CFITLTTIGFGDYVALKTKGALQK [Q17K],2.82
19,CFITLTTIGFGDYVALDTKGALQK [Q17D],2.17
20,CFITLTTIGFGDYVALETKGALQK [Q17E],2.76
21,CFITLTTIGFGDYVALNTKGALQK [Q17N],2.33
22,CFITLTTIQFGDYVALQTKGALQK [G9Q],2.81
23,CFITLTTITFGDYVALQTKGALQK [G9T],2.21
24,CFITLTTISFGDYVALQTKGALQK [G9S],1.73

row,Variant,protein stability index
1,CFITLTTIVFGDYVALQTKGALQK [G9V],4.79
2,CFITLTTIRFGDYVALQTKGALQK [G9R],1.36
3,CFITLTTIYFGDYVALQTKGALQK [G9Y],1.93
4,CFITLTTIWFGDYVALQTKGALQK [G9W],2.9
5,CFITLTTIGFGDYIALQTKGALQK [V14I],2.86
6,CFITLTTIGFGDYEALQTKGALQK [V14E],2.12
7,CFITLTTIGFGDYSALQTKGALQK [V14S],2.06
8,CFITLTTIGFGDYHALQTKGALQK [V14H],2.99
9,CFITLTTIGFGDYQALQTKGALQK [V14Q],3.43
10,CFITLTTIGFGDYKALQTKGALQK [V14K],1.82
11,CFITLTTIGFGDYMALQTKGALQK [V14M],2.02
12,CFITLTTIGFGDYNALQTKGALQK [V14N],1.86
13,CFITLTTIGFGDYTALQTKGALQK [V14T],2.64
14,CFITLTTIGFGDYFALQTKGALQK [V14F],3.46
15,CFITLTTIGFGDYYALQTKGALQK [V14Y],3.12
16,CFITLTTIGFGDYPALQTKGALQK [V14P],2.82
17,CFITLTTIGFGDYWALQTKGALQK [V14W],2.71
18,CFITLTTIGFGDYAALQTKGALQK [V14A],3.25
19,CFITLTTIGFGDYDALQTKGALQK [V14D],2.74
20,CFITLTTIGFGDYGALQTKGALQK [V14G],2.69
21,CFITLTTIGFGDYLALQTKGALQK [V14L],3.31
22,CFITLTTIGFGDYRALQTKGALQK [V14R],2.7
